Reference: patent US20200010547A1

Target: CD30 on CD30+ lymphoma cell lines (UniProt P28908)
Experiment: cell-based or functional assay

Sequence of UniProt P28908 (P28908 19-595 limits assumed): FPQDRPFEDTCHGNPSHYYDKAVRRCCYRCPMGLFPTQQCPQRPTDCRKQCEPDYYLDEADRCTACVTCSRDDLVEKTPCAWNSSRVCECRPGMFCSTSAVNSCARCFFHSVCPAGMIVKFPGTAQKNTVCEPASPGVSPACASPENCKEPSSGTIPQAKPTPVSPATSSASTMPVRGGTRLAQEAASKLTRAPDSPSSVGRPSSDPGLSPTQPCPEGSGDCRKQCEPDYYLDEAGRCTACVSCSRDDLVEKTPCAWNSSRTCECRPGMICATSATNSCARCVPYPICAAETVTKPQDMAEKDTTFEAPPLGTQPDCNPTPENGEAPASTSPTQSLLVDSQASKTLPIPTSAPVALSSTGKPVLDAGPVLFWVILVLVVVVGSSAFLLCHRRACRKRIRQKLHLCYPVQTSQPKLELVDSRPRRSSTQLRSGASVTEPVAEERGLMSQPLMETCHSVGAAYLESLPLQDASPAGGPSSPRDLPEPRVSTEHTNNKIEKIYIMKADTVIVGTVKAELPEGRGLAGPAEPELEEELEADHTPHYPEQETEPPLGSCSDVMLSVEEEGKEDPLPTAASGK

- specific lysis of CD30+ tumor cells by NK cells, 4-hour 51Cr release assay: 0.001 µg/mL
Substance: bispecific tetravalent CD30/CD16A tandem diabody AFM13 (bispecific antibody)
